Nine molecules from publication PMC6854463, “Structural Basis for Broad HIV-1 Neutralization by the MPER-Specific Human Broadly Neutralizing Antibody LN01” (Cell Host & Microbe, 2019) can be followed below.

Substitutions are numbered along the chain they refer to. “And” between values parts separate entries of the source, which are not always exact repeats. Equal entries are not always repeated.

Holding throughout (conditions): both partners purified
Assay [1] deals with T1, MPER-TM2 (gp41 residues 630-711, containing the complete TM region) (HIV-1 group M; Env Q74599 (HXB2-like), …, UniProt Q74599).
T1 construct: not shown: His-tag, N-terminal, cleaved; flag-tag, N-terminal, cleaved
Put plainly: BLI; Octet Red; biotinylated IgG on Streptavidin biosensors; MPER-TM2 in 25 mM HEPES pH 7.5, 150 mM NaCl, 0.1 % Fos-Choline-12, 25°C; global fit 1:1 model or steady state analysis. A general note: In BLI a coated tip is dipped into the sample, and binding shifts an interference pattern.

Assay [2] deals with T2, MPER-TM1 peptide (gp41 residues 671-689) (HIV-1, strain  (6SNC maps to …)).
T2 construct: also called gp41 MPER-TM1; source: synthetic peptide (Smart Bioscience, Grenoble)
The assay can be described thus: SPR.

The target of assay [3] is T1, MPER-TM2 (gp41 residues 630-711, …). The assay can be described thus: SPR. On the technique in general: Surface plasmon resonance follows binding to a sensor surface in real time, without labels.

B1: LN01 gH/UCA (antibody, V domains shown)
VH: QLQLQESGPGLVKPSETLSLTCTVSGGSISSSSYYWGWIRQPPGKGLEWIGSIYYSGSTYYNPSLKSRVTISVDTSKNQFSLKLSSVTAADTAVYYCVRMPSHGFWSTSFSYWYFDLWGRGTLVTVSS
VL: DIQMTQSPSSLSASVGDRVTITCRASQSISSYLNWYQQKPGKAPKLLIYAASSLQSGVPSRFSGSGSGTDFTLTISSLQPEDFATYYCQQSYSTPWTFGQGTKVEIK
notes: IgG; source: Expi293F, transient transfection (PEI), purified by protein A chromatography
What is called Kd is the concentration at which binding is half-saturated. The low end stands for higher affinity, the high end for lower affinity. B1 showed a Kd in assay [1] of 4700 ± 1700 nM.

B2: LN01 UCA/sL (antibody, V domains shown)
VH: B1 VH with T108G, S109Y
VL: DIQMTQSPSSLSASVGDKVTITCRASQSVTKYLNWYQFKTGQAPRILIYGTYTLLSGVSPRFSGAGSGSLYTLTITNIQPEDFATYYCQQAHSTPWTFGQGTHVAAN
notes: as for B1
On to B2, for which the binding result in assay [1] was “no binding”.

B3: LN01 gH/gL (antibody, V domains shown)
VH: B1 VH
VL: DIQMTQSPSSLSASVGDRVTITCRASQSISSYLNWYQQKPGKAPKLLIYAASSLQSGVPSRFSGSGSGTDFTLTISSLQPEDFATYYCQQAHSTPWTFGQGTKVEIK
notes: as for B1
In assay [1], B3 had a Kd of 1400 nM.

B4: LN01 UCA/UCA (antibody, V domains shown)
VH: B1 VH with T108G, S109Y
VL: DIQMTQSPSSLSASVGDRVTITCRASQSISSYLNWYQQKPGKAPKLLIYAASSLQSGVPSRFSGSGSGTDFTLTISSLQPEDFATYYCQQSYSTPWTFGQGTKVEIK
notes: also called the UCA version of LN01; source: Expi293F, transient transfection (PEI), purified by protein A chromatography
As for B4, the binding result in assay [1] is given as “no binding”.

B5: LN01 UCA/gL (antibody, V domains shown)
VH: B1 VH with T108G, S109Y
VL: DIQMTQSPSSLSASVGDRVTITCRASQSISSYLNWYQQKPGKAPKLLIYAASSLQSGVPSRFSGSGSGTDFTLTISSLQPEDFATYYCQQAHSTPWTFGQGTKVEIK
notes: as for B1
For B5, in assay [1], the binding result was “no binding”.

B6: LN01 gH/sL (antibody, V domains shown)
VH: B1 VH
VL: B2 VL
notes: as for B1
Regarding B6, binding in assay [1] was put at a Kd of 6.2 ± 0.02 nM.

B7: LN01 sH/gL (antibody, V domains shown)
VH: QVQLEESGPGLVQPWGTLSLTCRVSGDSVSNDNYYWAWIRQTPGRELQVIGTIYYSGTTYYNPSLRNRVTISLDKSVNVVSLRLGSVSAADTAQYYCVRMPSHGFWSTSFSYWYFDLWGRGHFVAVSW
VL: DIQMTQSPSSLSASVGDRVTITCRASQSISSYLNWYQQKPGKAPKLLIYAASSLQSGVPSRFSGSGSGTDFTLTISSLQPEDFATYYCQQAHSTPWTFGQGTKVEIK
notes: as for B1
Molecule B7 registered a Kd in assay [1] of 453 ± 82 nM.

B8: LN01 sH/gL-FR (antibody, V domains shown)
VH: B7 VH
VL: DIQMTQSPSSLSASVGDRVTITCRASQSVTKYLNWYQQKPGKAPKLLIYGTYSLQSGVPSRFSGSGSGTDFTLTISSLQPEDFATYYCQQAHSTPWTFGQGTKVEIK
notes: as for B1
In assay [1], B8 showed a Kd of 7 ± 0.03 nM.

B9: LN01 recombinant IgG1 monoclonal antibody (antibody, V domains shown)
VH: B7 VH
VL: B2 VL
notes: also called LN01 IgG1; IgG1 LN01 antibody; source: Expi293F, transient transfection (PEI), purified by protein A chromatography
On to B9, for which the Kd was 2.3 ± 0.01 nM in assay [1]; 161 nM and 170 nM in assay [2]; 13 nM in assay [3].
